Data reported in patent publication US7288251 (ABGENIX, dated 2007).

T1: dog CD40 on blood cells (dog, UniProt Q7YRL5 21-274)
T1 construct: whole, on cells; also called dog blood
T1 sequence (looked up): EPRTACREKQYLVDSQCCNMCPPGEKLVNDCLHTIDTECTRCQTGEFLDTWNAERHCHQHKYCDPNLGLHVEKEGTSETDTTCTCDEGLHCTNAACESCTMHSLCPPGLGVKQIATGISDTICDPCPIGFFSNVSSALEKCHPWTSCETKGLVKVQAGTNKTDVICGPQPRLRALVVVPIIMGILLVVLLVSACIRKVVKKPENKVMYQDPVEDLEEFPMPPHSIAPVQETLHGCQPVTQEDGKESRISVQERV

T2: rat CD40 on blood cells (rat, UniProt A6JXD6 20-289)
T2 construct: also called rat blood
T2 sequence: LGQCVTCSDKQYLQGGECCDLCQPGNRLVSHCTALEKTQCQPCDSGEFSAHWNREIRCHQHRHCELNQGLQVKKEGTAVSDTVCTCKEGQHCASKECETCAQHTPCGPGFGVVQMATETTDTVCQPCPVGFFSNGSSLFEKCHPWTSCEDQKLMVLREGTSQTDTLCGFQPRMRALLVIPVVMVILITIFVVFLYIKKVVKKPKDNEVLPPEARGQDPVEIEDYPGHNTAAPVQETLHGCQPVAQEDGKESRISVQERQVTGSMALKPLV

B1: monoclonal antibody 23.29.1 (antibody, human IgG2, kappa, V domains shown)
VH: QVQLVESGGGVVQPGRSLRLSCAASGFTFSSYAMHWVRQAPGKGLEWVAVISYDGSNKYYADSVKGRFTIYRDNSKNTLYLQMNSLRAEDTAVYYCARRGHYGNNYYSYYGLDVWGQGTTVTVSS
VL: DIVMTQSPLSLPVTPGEPASISCRSSQSLLPGNGYNYLDWYLQKPGQSPQLLIYLGSNRASGVPDRFSGSGSGTDFTLKISRVEAEDVGIYYCMQALQTPRTFGQGTKVEIKR
notes: Human IgG2 kappa from hybridoma; also called mAb 23.29.1; hybridoma 23.29.1 (LN 15878), ATCC PTA-4553
B2: monoclonal antibody 21.4.1 (antibody, human IgG2, kappa, V domains shown)
VH: not shown
VL: DIQMTQSPSSVSASVGDRVTITCRASQGIYSWLAWYQQKPGKAPNLLIYTASTLQSGVPSRFSGSGSGTDFTLTISSLQPEDFATYYCQQANIFPLTFGGGTKVEIKR
notes: Human IgG2 kappa from hybridoma; also called mAb 21.4.1; hybridoma 21.4.1 (LN 15853), ATCC PTA-3605
B3: monoclonal antibody 7.1.2 (antibody, human IgG2, kappa, V domains shown)
VH: QVQLVESGGGVVQPGRSLRLSCAASGFTFSSYGMHWVRQAPGKGLEWVAVISNDGDNKYHADSVWGRFTISRDNSRSTLYLQMNSLRAEDTAVYYCARRGMGSSGSRGDYYYYYGLDVWGQGTTVTVSS
VL: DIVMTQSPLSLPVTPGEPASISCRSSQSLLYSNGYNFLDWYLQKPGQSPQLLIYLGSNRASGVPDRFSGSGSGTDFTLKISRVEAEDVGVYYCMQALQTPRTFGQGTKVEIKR
notes: Human IgG2 kappa from hybridoma; also called hybridoma 7.1.2 (LN 15849), ATCC PTA-3601

Experiments:
[1] = target: T3, human/mouse chimeric CD40 HuD3 (mouse; human, UniProt P27512 20-94; P25942 95-147, limits assumed); assay: ELISA on chimeric CD40
T3 construct: domain: D1-D2;domain: D3
T3 sequence (P27512 other isoform, or with tags, fused parts or gaps mutant limits assumed): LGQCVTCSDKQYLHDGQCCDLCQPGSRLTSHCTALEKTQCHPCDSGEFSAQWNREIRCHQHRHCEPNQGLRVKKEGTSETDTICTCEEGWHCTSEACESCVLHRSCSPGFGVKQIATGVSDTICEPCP

[2] = target: T4, human/mouse chimeric CD40 HuD1, D3 (human; mouse, UniProt P25942 21-64; P27512 65-94; P25942 95-147, limits assumed); assay: ELISA on chimeric CD40
T4 construct: domain: D1;domain: D2;domain: D3
T4 sequence (P25942 other isoform, or with tags, fused parts or gaps mutant limits assumed): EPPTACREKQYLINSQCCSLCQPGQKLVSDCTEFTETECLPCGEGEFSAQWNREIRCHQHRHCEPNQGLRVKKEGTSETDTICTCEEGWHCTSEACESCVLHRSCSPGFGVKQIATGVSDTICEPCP

[3] = target: T5, human/mouse chimeric CD40 HuD1 (human; mouse, UniProt P25942 21-64; P27512 65-147, limits assumed); assay: ELISA on chimeric CD40
T5 construct: domain: D1;domain: D2-D3
T5 sequence (P25942 other isoform, or with tags, fused parts or gaps mutant limits assumed): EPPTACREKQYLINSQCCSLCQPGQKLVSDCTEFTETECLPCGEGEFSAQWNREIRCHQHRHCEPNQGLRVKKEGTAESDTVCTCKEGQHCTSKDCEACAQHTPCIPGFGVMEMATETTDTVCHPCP

[4] = target: T6, human CD40 on cells (human, UniProt P25942 21-277); assay: cell-based or functional assay
T6 sequence (P25942 21-277): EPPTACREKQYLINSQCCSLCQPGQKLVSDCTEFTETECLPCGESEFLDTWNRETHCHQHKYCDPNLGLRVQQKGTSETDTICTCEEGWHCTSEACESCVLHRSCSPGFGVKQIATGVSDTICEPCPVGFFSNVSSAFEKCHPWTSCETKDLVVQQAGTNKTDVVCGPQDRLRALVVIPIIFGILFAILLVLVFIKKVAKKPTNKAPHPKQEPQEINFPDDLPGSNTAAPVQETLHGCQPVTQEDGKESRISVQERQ

[5] = target: RANK/Ig; assay: ELISA, RANK/Ig coated, antibody 1 µg/ml
RANK/Ig, sequence (Q9Y6Q6 whole entry): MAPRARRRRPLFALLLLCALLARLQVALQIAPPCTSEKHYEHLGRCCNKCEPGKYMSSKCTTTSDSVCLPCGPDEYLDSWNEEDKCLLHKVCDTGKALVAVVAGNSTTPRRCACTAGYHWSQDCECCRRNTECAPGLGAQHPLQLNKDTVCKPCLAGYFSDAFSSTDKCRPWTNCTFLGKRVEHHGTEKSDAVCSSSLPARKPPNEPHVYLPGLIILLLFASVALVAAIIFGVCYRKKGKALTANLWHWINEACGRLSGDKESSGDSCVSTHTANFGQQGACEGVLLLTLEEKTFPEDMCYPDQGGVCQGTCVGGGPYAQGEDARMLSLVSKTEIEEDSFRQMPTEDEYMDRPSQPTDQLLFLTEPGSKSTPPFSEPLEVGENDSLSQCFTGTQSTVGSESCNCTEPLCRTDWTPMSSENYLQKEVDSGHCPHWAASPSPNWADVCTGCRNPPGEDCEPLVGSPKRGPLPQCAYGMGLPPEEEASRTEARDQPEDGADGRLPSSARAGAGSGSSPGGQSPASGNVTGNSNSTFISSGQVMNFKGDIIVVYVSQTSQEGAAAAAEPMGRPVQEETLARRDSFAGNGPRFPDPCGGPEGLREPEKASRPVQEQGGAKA
Experimental: (§1) We then washed the plate with PBST (PBS+0.1% Tween-20) three times and blocked the plate with PBST+0.5% BSA at 150 µl/well. We incubated the plate at room temperature for 1 hour and then washed with PBST three times. […] We incubated the plate at room temperature for 1 hour then washed with PBST three times. […] We incubated the plate at room temperature for 1 hour and then washed with PBST three times. […] We then read the plate using a SpectraMax™ plate reader.

[6] = target: T7, Mouse CD40(D1-D3)-6Xhis (mouse, UniProt P27512 20-147, limits assumed); assay: ELISA, 293F supernatant
T7 construct: domain: D1-D3; also called Mouse CD40(D1-D3)-6xHis fusion protein
T7 sequence (P27512 other isoform, or with tags, fused parts or gaps limits assumed): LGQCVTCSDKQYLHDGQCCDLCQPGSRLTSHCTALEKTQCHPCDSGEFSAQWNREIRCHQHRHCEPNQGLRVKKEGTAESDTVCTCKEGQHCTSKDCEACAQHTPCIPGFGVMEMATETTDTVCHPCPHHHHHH
Text: Binding of anti-CD40 human antibodies were detected with HRP conjugated goat anti-human IgG (FC specific Caltag H10507), diluted 1:2,000.

[7] = target: T6, human CD40 on cells; assay: cell-based or functional assay; remark: listed apart in the source
[8] = target: T1, dog CD40 on blood cells; assay: FACS, whole blood
[9] = target: T2, rat CD40 on blood cells; assay: FACS, whole blood
[10] = target: T8, mouse CD40 on blood cells (mouse, UniProt P27512 20-289); assay: FACS, whole blood
T8 construct: whole, on cells; also called mouse blood
T8 sequence (P27512 20-289): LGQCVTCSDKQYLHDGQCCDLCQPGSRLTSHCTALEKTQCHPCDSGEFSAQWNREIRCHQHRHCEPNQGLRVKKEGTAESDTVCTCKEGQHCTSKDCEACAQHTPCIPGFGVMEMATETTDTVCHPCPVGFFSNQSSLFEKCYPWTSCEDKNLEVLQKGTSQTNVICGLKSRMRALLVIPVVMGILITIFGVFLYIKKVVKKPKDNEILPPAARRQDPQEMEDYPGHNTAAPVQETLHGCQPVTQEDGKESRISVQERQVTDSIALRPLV

[11] = target: T9, human CD40-IgG1 Fc fusion protein (human, UniProt P25942 21-193); assay: SPR BIAcore 3000, CD40-Ig immobilised, antibody injected
T9 construct: extracellular domain; also called CD40-Ig fusion protein; CD40-IgG fusion protein; not shown: human IgG1 Fc
T9 sequence (P25942 21-193): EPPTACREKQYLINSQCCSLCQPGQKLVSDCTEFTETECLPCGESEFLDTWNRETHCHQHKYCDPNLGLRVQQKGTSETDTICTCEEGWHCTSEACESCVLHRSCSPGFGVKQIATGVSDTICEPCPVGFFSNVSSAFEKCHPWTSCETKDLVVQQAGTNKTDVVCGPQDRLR

[12] = target: T10, TNFR-1/Ig; assay: ELISA, TNFR-1/Ig coated, antibody 1 µg/ml
T10 construct: also called Tumor Necrosis Factor Receptor-1
T10 sequence (P19438 whole entry): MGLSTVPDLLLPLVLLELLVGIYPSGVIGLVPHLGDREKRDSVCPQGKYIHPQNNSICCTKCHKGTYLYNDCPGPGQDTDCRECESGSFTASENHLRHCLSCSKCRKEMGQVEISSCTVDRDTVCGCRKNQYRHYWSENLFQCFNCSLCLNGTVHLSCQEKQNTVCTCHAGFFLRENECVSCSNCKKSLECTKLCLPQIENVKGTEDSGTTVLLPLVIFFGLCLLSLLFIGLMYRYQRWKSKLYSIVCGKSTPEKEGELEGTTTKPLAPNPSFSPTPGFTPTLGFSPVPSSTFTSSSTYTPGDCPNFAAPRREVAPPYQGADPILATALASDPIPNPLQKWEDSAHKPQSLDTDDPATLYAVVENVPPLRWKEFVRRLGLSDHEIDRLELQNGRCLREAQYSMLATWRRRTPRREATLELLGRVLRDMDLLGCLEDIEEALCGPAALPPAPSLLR
Experimental: as §1

[13] = target: T11, 4-1BB/Ig; assay: ELISA, 4-1BB/Ig coated, antibody 1 µg/ml
T11 construct: also called CD137
Experimental: as §1

[14] = target: T6, human CD40 on cells; assay: cell-based or functional assay; remark: listed apart in the source
[15] = target: T12, TNFR-2/Ig; assay: ELISA, TNFR-2/Ig coated, antibody 1 µg/ml
T12 construct: also called Tumor Necrosis Factor Receptor-2
Experimental: as §1

[16] = target: T6, human CD40 on cells; assay: cell-based or functional assay; remark: listed apart in the source
[17] = target: T13, human/mouse chimeric CD40 HuD2 (mouse; human, UniProt P27512 20-64; P25942 65-94; P27512 95-147, limits assumed); assay: ELISA on chimeric CD40
T13 construct: domain: D1;domain: D2;domain: D3
T13 sequence (P27512 other isoform, or with tags, fused parts or gaps mutant limits assumed): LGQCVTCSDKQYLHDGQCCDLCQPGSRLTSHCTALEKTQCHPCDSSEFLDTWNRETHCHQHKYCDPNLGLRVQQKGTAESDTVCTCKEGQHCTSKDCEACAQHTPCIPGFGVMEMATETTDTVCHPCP

[18] = target: T14, human/mouse chimeric CD40 HuD2, D3 (mouse; human, UniProt P27512 20-64; P25942 65-147, limits assumed); assay: ELISA on chimeric CD40
T14 construct: domain: D1;domain: D2-D3
T14 sequence (P27512 other isoform, or with tags, fused parts or gaps mutant limits assumed): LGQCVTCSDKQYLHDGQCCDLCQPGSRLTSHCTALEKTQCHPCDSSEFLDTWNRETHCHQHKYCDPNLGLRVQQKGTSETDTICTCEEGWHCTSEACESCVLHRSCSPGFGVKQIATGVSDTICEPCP

[19] = target: T6, human CD40 on cells; assay: cell-based or functional assay; remark: listed apart in the source
[20] = target: T6, human CD40 on cells; assay: cell-based or functional assay; remark: listed apart in the source
[21] = target: T9, human CD40-IgG1 Fc fusion protein; assay: ELISA, CD40/Ig coated, antibody 1 µg/ml
[22] = target: T6, human CD40 on cells; assay: FACS on CD19/CD20+ B cells in whole blood
Experimental: We incubated aliquots of human and monkey whole blood for 1 hour on ice with increasing concentrations of anti-CD40 antibodies of the invention exemplified herein or with an anti-keyhole limpet hemocyanin (KLH) antibody as a negative control. We then incubated the samples for 30 minutes on ice with anti-human IgG2-conjugated RPE (phycoerythrin). We measured binding by flow cytometry of CD19/CD20 positive B cells and analyzed the histograms of fluorescence intensity (F12-H) versus cell number (Counts) using CellQuest software. We estimated binding (K_D) for each antibody from graphs of mean fluorescence intensity versus antibody concentration. We controlled for depletion of the antibody by measuring binding over a range of cell concentrations.

| binding result [1] | binding result [2] | binding result [3] | CD40 specific signal over the signal for this molecule [5] | binding result [6] | DC IL-12p70 secretion with LPS, EC50 [7] | binding result [8] | binding result [9] | binding result [10] | Kd [11] | CD40 specific signal over the signal for this molecule [12] | CD40 specific signal over the signal for this molecule [13] | CD40 specific signal over the signal for this molecule [15] | Allo DC/T IFNγ secretion, EC50 [16] | other results | Binder |
| --- | --- | --- | --- | --- | --- | --- | --- | --- | --- | --- | --- | --- | --- | --- | --- |
| no binding | no binding | no binding | ≥ 100 fold | no binding | 0.1 µg/mL | no binding | no binding | no binding | 0.0704 nM | ≥ 100 fold | ≥ 100 fold | ≥ 100 fold | 0.3 µg/mL | DC B7-1 (CD80), fold increase in median intensity at 1 µg/ml, 72 h [4]: 0.9 fold; DC B7-2 (CD86), fold increase in median intensity at 1 µg/ml, 72 h [4]: 8.4 fold; DC CD83, fold increase in median intensity at 1 µg/ml, 72 h [4]: 10.6 fold; DC ICAM (CD54), fold increase in median intensity at 1 µg/ml, 72 h [4]: 1.2 fold; DC MHC Class II, fold increase in median intensity at 1 µg/ml, 72 h [4]: 2 fold; koff [11]: 3.9e-05 s⁻¹; kon [11]: 354000 M⁻¹ s⁻¹; B cell B7-1 (CD80), fold increase in median intensity at 1 µg/ml [14]: 1.3 fold; B cell B7-2 (CD86), fold increase in median intensity at 1 µg/ml [14]: 0.9 fold; B cell CD23, fold increase in median intensity at 1 µg/ml [14]: 1.1 fold; B cell ICAM (CD54), fold increase in median intensity at 1 µg/ml [14]: 1 fold; B cell MHC Class II, fold increase in median intensity at 1 µg/ml [14]: 1.2 fold | B1 |
| no binding | no binding | no binding | ≥ 100 fold | no binding | 0.3 µg/mL | no binding | no binding | no binding | 0.348 nM | ≥ 100 fold | ≥ 100 fold | ≥ 100 fold | 0.3 µg/mL | binding result [17]: no binding; binding result [18]: no binding; Dendritic cell B7-2 upregulation, EC50 [19]: 0.0714 µg/mL; Dendritic cell CD83 upregulation, EC50 [19]: 0.233 µg/mL; Dendritic cell ICAM upregulation, EC50 [19]: 0.241 µg/mL; Dendritic cell MHC II upregulation, EC50 [19]: 0.252 µg/mL; B cell B7-2 upregulation, EC50 [20]: 0.016 µg/mL; B cell CD23 upregulation, EC50 [20]: 0.019 µg/mL; B cell CD71 upregulation, EC50 [20]: 0.00073 µg/mL; B cell ICAM upregulation, EC50 [20]: 0.0153 µg/mL; B cell MHC II upregulation, EC50 [20]: 0.00385 µg/mL | B2 |
| – | – | – | ≥ 100 fold | – | – | no binding | no binding | no binding | – | ≥ 100 fold | ≥ 100 fold | ≥ 100 fold | – | binding result [21]: binds; binding result [22]: binds | B3 |
